# Laboratory results taken from patent publication US20260028422A1 (CONCEPT TO MEDICINE BIOTECH, published 2026).
# Where two headings read alike, the source gives them in different places.
# T1: cyno MerTK-his protein (cynomolgus, UniProt A0A2K5V1H9 27-505)
# T1 construct: also called cyno MerTK protein; Cynomolgus
# T1 sequence: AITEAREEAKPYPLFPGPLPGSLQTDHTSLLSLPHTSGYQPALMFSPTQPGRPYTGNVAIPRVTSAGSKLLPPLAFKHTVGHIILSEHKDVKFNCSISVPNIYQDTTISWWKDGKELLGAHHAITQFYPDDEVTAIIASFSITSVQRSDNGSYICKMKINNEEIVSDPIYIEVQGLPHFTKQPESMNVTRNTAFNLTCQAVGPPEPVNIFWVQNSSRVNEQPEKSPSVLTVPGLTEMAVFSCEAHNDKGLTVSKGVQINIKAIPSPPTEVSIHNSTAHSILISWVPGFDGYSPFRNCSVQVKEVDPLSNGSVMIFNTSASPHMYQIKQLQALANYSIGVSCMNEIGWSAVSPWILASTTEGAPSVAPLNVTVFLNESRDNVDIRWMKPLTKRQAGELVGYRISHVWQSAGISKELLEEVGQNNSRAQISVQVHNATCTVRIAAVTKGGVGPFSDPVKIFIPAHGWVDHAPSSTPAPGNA
# T2: human MerTK-his protein (human, UniProt Q12866 21-505)
# T2 construct: extracellular domain; also called hMerTK-His; human MerTK protein
# T2 sequence (looked up): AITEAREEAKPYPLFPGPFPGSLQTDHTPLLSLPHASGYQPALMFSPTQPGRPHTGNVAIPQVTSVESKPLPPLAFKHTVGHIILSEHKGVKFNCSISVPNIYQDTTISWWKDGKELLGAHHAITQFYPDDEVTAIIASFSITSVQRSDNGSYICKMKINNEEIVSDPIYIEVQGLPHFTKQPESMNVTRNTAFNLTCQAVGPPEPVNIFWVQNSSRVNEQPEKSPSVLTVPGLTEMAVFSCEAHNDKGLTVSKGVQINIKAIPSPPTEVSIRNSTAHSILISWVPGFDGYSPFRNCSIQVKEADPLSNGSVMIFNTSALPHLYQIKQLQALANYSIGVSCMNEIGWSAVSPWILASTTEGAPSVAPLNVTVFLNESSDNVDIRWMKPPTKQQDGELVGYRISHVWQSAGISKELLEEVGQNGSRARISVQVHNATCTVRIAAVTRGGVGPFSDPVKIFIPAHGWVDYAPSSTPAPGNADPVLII
# T3: human MerTK expressed on cells (human, UniProt Q12866 21-999)
# T3 construct: whole, on cells; also called CHO-K1-hMerTK; CHO-K1-MerTK
# T3 sequence (looked up): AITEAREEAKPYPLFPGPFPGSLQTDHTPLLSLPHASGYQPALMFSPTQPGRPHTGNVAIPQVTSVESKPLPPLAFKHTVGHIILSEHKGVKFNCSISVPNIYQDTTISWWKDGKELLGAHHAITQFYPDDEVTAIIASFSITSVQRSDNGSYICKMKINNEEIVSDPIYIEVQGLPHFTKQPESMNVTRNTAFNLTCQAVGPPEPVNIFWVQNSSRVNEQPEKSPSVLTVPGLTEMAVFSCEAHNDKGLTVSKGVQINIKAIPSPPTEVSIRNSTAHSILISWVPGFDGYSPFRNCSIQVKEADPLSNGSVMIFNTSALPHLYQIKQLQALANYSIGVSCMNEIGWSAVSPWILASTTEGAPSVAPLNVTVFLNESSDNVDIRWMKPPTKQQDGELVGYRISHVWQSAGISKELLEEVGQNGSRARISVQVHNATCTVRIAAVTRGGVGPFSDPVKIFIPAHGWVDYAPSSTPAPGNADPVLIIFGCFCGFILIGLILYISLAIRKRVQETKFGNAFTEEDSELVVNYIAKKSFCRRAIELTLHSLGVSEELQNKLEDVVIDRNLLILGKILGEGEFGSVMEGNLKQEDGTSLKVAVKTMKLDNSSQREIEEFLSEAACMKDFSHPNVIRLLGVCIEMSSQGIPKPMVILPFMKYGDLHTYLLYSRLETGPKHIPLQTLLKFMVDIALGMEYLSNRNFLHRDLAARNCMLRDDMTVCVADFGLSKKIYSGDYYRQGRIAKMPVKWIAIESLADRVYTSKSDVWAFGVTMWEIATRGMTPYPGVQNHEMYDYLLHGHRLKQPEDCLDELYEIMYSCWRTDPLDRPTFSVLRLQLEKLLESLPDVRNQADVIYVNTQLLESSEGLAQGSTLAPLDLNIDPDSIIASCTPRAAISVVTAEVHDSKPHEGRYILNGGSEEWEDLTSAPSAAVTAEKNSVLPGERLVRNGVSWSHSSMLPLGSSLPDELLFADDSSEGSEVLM
# B1: h13B4.v16 benchmark antibody (antibody, V domains shown)
# VH: EVQLVESGEGLVQPGGSLRLSCAASGFSLSSYAMGWVRQAPGKGLEYVGIINSYGNTYYANWAKGRFTISRDNSKNTVYLQMGSLRAEDMAVYYCARDPGVSSNLWGRGTLVTVSS
# VL: DIQMTQSPSTLSASVGDRVTITCQASQNIYSGLAWYQQKPGKAPKLLIYGASKLASGVPSRFSGSGSGTEFTLTISSLQPDDFATYYCQATYYSSNSVAFGGGTKVEIK
# B2: 254B4D9 chimeric monoclonal antibody (antibody, V domains shown)
# VH: QIQLVQSGPELKKPGETVKISCKASGYTFTAYGMSWVKQAPGKGLQWMGWINTYSGVPTYTDDFKGRFAFSLEASASTAFLQINNLKNEDTSTYFCARRAAVVAKYWYFDVWGTGTTVTVSS
# VL: DIQMTQSPSSLFASLGGKVIITCKSSQDINKRISWYQHKPGKGPRLLIHSTSSLQPGIPLRFSGSGSGRDYSFSISNLEPEDIATYFCLQYDNLLTFGAGTKLELK
# B3: 265F11B5 chimeric monoclonal antibody (antibody, V domains shown)
# VH: QVQLQQSGPELVKPGASVRLSCKASGYTFTTYDINWVKQRPGLGLEWIGWIYPRDGYTKYNEKFKGRATLAVDTSSSTAYMELHSLTSEDSAVYFCTRGYYDNLYYFDYWGQGTTLTVSS
# VL: EIVLTQSPTTVAASPGEKITITCSASSIISSNYFHWYQQRPGFSPKLLIYRTSNLASGVPARFSGSGSGTSYSLTIGTMEAEDVATYYCQQGRSVPLTFGAGTKLELK
# Legend:
# cyno MerTK-his protein [1] = molecular target: T1, cyno MerTK-his protein; assay: ELISA, plate coated with cyno MerTK-his, anti-human IgG Fc-HRP, OD 450nm
# cyno MerTK-his protein [2] = molecular target: T1, cyno MerTK-his protein; assay: as above; remark: listed apart in the source
# human MerTK-his protein [3] = molecular target: T2, human MerTK-his protein; assay: ELISA, plate coated with human MerTK-his, anti-human IgG Fc-HRP, OD 450nm
# human MerTK-his protein [4] = molecular target: T2, human MerTK-his protein; assay: as above; remark: listed apart in the source
# [5] = molecular target: T3, human MerTK expressed on cells; assay: FACS on CHO-K1 cells overexpressing human MerTK, MFI (AF488)
# [6] = molecular target: T3, human MerTK expressed on cells; assay: as above; remark: listed apart in the source
binder,measurement,setting,value
B1,EC50,cyno MerTK-his protein [1],44 pM
same,EC50,cyno MerTK-his protein [2],27 pM
same,EC50,human MerTK-his protein [3],37 pM
same,EC50,human MerTK-his protein [4],27 pM
B2,EC50,[5],1000 pM
B3,EC50,[6],230 pM
